Source: publication PMC5048913

Experiments:
Assay in all cases: split reporter
[1] = biological target: M2-dAZ-Yn (Yn-fused MDM2 deleted of the AZ domain) (UniProt Q00987)
[2] = biological target: M2-dIAZ-Yn (Yn-fused MDM2 deleted of the I1 and AZ domains) (UniProt Q00987)
[3] = biological target: Yn-fused MDM2, wild type (FLAG-tagged MDM2-Yn) (UniProt Q00987)

Chain of Yc-fused NS, wild type (Myc-tagged NS-Yc) (Q9BVP2 whole entry, the tested form may be a part): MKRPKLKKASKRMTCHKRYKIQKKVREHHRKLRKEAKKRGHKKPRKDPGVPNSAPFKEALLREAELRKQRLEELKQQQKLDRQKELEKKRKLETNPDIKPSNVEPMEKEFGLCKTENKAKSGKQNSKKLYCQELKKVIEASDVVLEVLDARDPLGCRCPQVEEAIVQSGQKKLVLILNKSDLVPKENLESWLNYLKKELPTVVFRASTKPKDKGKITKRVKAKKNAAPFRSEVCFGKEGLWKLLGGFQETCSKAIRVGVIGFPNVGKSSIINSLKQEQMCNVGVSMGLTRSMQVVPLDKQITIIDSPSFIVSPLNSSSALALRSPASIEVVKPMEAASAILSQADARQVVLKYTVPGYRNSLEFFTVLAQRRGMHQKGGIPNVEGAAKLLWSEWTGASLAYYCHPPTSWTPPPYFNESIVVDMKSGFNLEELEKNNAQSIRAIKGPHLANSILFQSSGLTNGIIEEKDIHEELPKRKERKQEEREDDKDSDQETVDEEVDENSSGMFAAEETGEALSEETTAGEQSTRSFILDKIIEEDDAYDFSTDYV
Chain of NS-GI-Yc (Yc-fused NS deleted of the BC and A domains) (Q9BVP2 116-464, stated change not applied): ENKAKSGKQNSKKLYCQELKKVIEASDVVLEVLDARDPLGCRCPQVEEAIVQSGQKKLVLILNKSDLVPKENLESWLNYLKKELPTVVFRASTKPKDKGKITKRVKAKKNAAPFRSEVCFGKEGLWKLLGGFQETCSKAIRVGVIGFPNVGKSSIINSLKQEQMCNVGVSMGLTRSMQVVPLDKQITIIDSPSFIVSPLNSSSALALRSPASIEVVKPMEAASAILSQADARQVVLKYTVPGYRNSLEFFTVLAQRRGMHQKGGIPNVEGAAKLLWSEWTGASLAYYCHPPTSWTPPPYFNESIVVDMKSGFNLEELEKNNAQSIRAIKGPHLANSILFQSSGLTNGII

Row | Substance | BiFC efficiency (percent YFP+ cells in the CFP+ population) [1] | BiFC efficiency (percent YFP+ cells in the CFP+ population) [2] | BiFC efficiency (percent YFP+ cells in the CFP+ population) [3]
1 | Yc-fused NS, wild type (Myc-tagged NS-Yc) (from UniProt Q9BVP2 1-549) (natural protein) | 15% | 9.4% | 48.7%
2 | NS-GI-Yc (Yc-fused NS deleted of the BC and A domains) (from UniProt Q9BVP2 116-464) (domain or fragment) | – | – | 27.2%
